IntAct's records for PubMed 28065597

B1: Tyrosine-protein phosphatase non-receptor type 7 (Homo sapiens), P35236 (parent)
chain: MVQAHGGRSRAQPLTLSLGAAMTQPPPEKTPAKKHVRLQERRGSNVALMLDVRSLGAVEPICSVNTPREVTLHFLRTAGHPLTRWALQRQPPSPKQLEEEFLKIPSNFVSPEDLDIPGHASKDRYKTILPNPQSRVCLGRAQSQEDGDYINANYIRGYDGKEKVYIATQGPMPNTVSDFWEMVWQEEVSLIVMLTQLREGKEKCVHYWPTEEETYGPFQIRIQDMKECPEYTVRQLTIQYQEERRSVKHILFSAWPDHQTPESAGPLLRLVAEVEESPETAAHPGPIVVHCSAGIGRTGCFIATRIGCQQLKARGEVDILGIVCQLRLDRGGMIQTAEQYQFLHHTLALYAGQLPEEPSP

Variants of: B1
Details: with erbb4_human ERBB4, Q15303

effect of a mutation on the interaction	Variant
with no effect	MVQAHGGRSRAQPLTLSLGAAMTQPPPEKTPAKKHVRLQERRGSNVALMLDVRSLGAVEPICSVNTPREVTLHFLRTAGHPLTRWALQRQPPSPKQLEEEFLKIPSNFVSPEDLDIPGHASKDRYKTILPNPQSRVCLGRAQSQEDGDYINANYIRGYDGKEKVYIATQGPMPNTVSDFWEMVWQEEVSLIVMLTQLREGKEKCVHYWPTEEETYGPFQIRIQDMKECPEYTVRQLTIQYQEERRSVKHILFSAWPDHQTPESAGPLLRLVAEVEESPETAAHPGPIVVHSSAGIGRTGCFIATRIGCQQLKARGEVDILGIVCQLRLDRGGMIQTAEQYQFLHHTLALYAGQLPEEPSP [C291S]
with no effect	MVQAHGGRSRAQPLTLSLGAAMTQPPPEKTPAKKHVRLQERRGSNVALMLDVRSLGAVEPICSVNTPREVTLHFLRTAGHPLTRWALQRQPPSPKQLEEEFLKIPSNFVSPEDLDIPGHASKDRYKTILPNPQSRVCLGRAQSQEDGDYINANYIRGYDGKEKVYIATQGPMPNTVSDFWEMVWQEEVSLIVMLTQLREGKEKCVHYWPTEEETYGPFQIRIQDMKECPEYTVRQLTIQYQEERRSVKHILFSAWPAHQTPESAGPLLRLVAEVEESPETAAHPGPIVVHSSAGIGRTGCFIATRIGCQQLKARGEVDILGIVCQLRLDRGGMIQTAEQYQFLHHTLALYAGQLPEEPSP [D257A;C291S]

Variants of: B1
Details: with igf1r_human IGF1R

effect of a mutation on the interaction	Variant
with no effect	MVQAHGGRSRAQPLTLSLGAAMTQPPPEKTPAKKHVRLQERRGSNVALMLDVRSLGAVEPICSVNTPREVTLHFLRTAGHPLTRWALQRQPPSPKQLEEEFLKIPSNFVSPEDLDIPGHASKDRYKTILPNPQSRVCLGRAQSQEDGDYINANYIRGYDGKEKVYIATQGPMPNTVSDFWEMVWQEEVSLIVMLTQLREGKEKCVHYWPTEEETYGPFQIRIQDMKECPEYTVRQLTIQYQEERRSVKHILFSAWPDHQTPESAGPLLRLVAEVEESPETAAHPGPIVVHSSAGIGRTGCFIATRIGCQQLKARGEVDILGIVCQLRLDRGGMIQTAEQYQFLHHTLALYAGQLPEEPSP [C291S]
with no effect	MVQAHGGRSRAQPLTLSLGAAMTQPPPEKTPAKKHVRLQERRGSNVALMLDVRSLGAVEPICSVNTPREVTLHFLRTAGHPLTRWALQRQPPSPKQLEEEFLKIPSNFVSPEDLDIPGHASKDRYKTILPNPQSRVCLGRAQSQEDGDYINANYIRGYDGKEKVYIATQGPMPNTVSDFWEMVWQEEVSLIVMLTQLREGKEKCVHYWPTEEETYGPFQIRIQDMKECPEYTVRQLTIQYQEERRSVKHILFSAWPAHQTPESAGPLLRLVAEVEESPETAAHPGPIVVHSSAGIGRTGCFIATRIGCQQLKARGEVDILGIVCQLRLDRGGMIQTAEQYQFLHHTLALYAGQLPEEPSP [D257A;C291S]

Variants of: B1
Details: with igf1r_human IGF1R
Remark: another data set of the same source

effect of a mutation on the interaction	Variant
disrupting interaction	MVQAHGGRSRAQPLTLSLGAAMTQPPPEKTPAKKHVRLQERRGSNVALMLDVRSLGAVEPICSVNTPREVTLHFLRTAGHPLTRWALQRQPPSPKQLEEEFLKIPSNFVSPEDLDIPGHASKDRYKTILPNPQSRVCLGRAQSQEDGDYINANYIRGYDGKEKVYIATQGPMPNTVSDFWEMVWQEEVSLIVMLTQLREGKEKCVHYWPTEEETYGPFQIRIQDMKECPEYTVRQLTIQYQEERRSVKHILFSAWPDHQTPESAGPLLRLVAEVEESPETAAHPGPIVVHSSAGIGRTGCFIATRIGCQQLKARGEVDILGIVCQLRLDRGGMIQTAEQYQFLHHTLALYAGQLPEEPSP [C291S]
increasing interaction	MVQAHGGRSRAQPLTLSLGAAMTQPPPEKTPAKKHVRLQERRGSNVALMLDVRSLGAVEPICSVNTPREVTLHFLRTAGHPLTRWALQRQPPSPKQLEEEFLKIPSNFVSPEDLDIPGHASKDRYKTILPNPQSRVCLGRAQSQEDGDYINANYIRGYDGKEKVYIATQGPMPNTVSDFWEMVWQEEVSLIVMLTQLREGKEKCVHYWPTEEETYGPFQIRIQDMKECPEYTVRQLTIQYQEERRSVKHILFSAWPAHQTPESAGPLLRLVAEVEESPETAAHPGPIVVHSSAGIGRTGCFIATRIGCQQLKARGEVDILGIVCQLRLDRGGMIQTAEQYQFLHHTLALYAGQLPEEPSP [D257A;C291S]
